Results published in patent US20230159661A1 (ICHNOS SCIENCES, published 2023).
Numbering of substitutions follows the chain as printed. Blank lines part the entries; values can stand above or below the binder they belong to.

Key:
hEGFR-IV_580-638 = biological target: T1, hEGFR-IV_580-638 (human); test: SPR, antibody captured on Protein G
T1 construct: PCR amplified from the His-tagged hEGFR construct; purified on Ni sepharose
T1 chain: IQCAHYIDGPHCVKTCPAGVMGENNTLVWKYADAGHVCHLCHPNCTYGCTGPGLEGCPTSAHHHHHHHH
Method: (§1) Measurements were performed on a Biacore 2000 instrument (GE). […] Various human and cynomolgus EGFR constructs were injected as analyte at a concentration of 200 nM at a flow rate of 30 μl/min in HBS-EP buffer. Dissociation time was 4 min. After each binding event, the surface was regenerated with 10 μl of glycine buffer pH 1.5. To verify the integrity of the EGFR domain IV constructs, a polyclonal goat anti-EGFR known to us to contain at least one anti EGFR domain IV binder (AF231, Bio-Techne AG, Zug, Switzerland) was immobilized as described above and human and cynomolgus EGFR constructs were injected as described above.

[1] = biological target: T2, Cynomolgus EGFR-IV_580-638 (cynomolgus); test: SPR, antibody captured on Protein G
T2 chain: T1 chain with P58A, T59R
Method: as §1

hEGFR-IV_556-638 = biological target: T3, hEGFR-IV_556-638 (human); test: SPR, chimeric antibody captured on Protein G, analyte 200 nM
T3 construct: PCR amplified from the His-tagged hEGFR construct; purified on Ni sepharose
T3 chain: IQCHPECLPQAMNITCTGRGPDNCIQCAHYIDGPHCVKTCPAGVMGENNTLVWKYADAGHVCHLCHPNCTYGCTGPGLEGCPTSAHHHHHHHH
Method: as §1

[2] = biological target: T4, Cynomolgus EGFR-IV_556-638 (cynomolgus); test: as above
T4 chain: T3 chain with A11V, P82A, T83R
Method: as §1

hEGFR-I-II-III_hErbB3-IV = biological target: T5, hEGFR-I-II-III_hErbB3-IV (human); test: ELISA, coated antigen 2 ug/ml
T5 construct: also called chimeric EGFR I-III Her3 IV molecule; EGFR-Her3 chimeric molecule (B)
Method: Supernatants from both subclones were harvested and purified using a LC-kappa mouse affinity matrix (Life technologies), according to the manufacturer's instructions. These purified antibodies were tested by ELISA on 96-well plates coated with either soluble human EGFR or recombinant EGFR-Her3 chimeric constructs. These molecules were diluted at 2 ug/ml in PBS and immobilized overnight at 4° C. on a high binding 96-well plates. […] As a control, Panitumumab (Vectibix®) was used at the same concentrations. […] Following this incubation, the plates were washed and incubated with 100 ul of TMB substrate. The reaction was stopped by adding 100 μl of H₂SO₄ 2N and the absorbance was read at 450 nm on a Synergy HT2 spectrophotometer (Biotek, USA; distributor: WITTEC AG, Littau, Switzerland).

[3] = biological target: T6, CD3 on human T cells (PBMCs) (human, UniProt P07766 23-207); test: flow cytometry on PBMCs, T cells, anti-human IgG Fc-PE
T6 construct: whole, on cells; also called CD3ε; CD4+ T cells
Method: (§2) FACS simple binding was performed using PBMCs (to assess binding to CD3) or NCI-H1703 squamous cancer cells (to assess binding to EGFR). Cells were resuspended at 10⁶ cells/ml in FACS buffer (1×PBS+10% Versene+2% FBS), and 100 ul were added to U-bottom 96-well plates which were then centrifuged at 350 g for 3 min. […] The cells were washed in FACS buffer and stained with the following antibodies (ThermoFisher): anti-human CD4 PE-eF610 (1/100), anti-human CD8a APC (1/100) and anti-human IgG (Fc-gamma specific) PE (1/200) for 20 min 4° C. Cells were washed with FACS buffer and resuspended in FACS buffer containing Sytox green viability dye (1/200), for 20 min at 4° C. and acquired on a CytoFlex (Beckman Coulter).
(§3) For the PBMCs, the cells were also labelled with anti-CD4 or anti-CD8 antibodies.

[4] = biological target: T6, CD3 on human T cells (PBMCs); test: flow cytometry on PBMCs, CD4+ T cells, anti-human IgG Fc-PE
Method: as §2, §3

[5] = biological target: T6, CD3 on human T cells (PBMCs); test: flow cytometry on PBMCs, CD8+ T cells, anti-human IgG Fc-PE
Method: as §2, §3

[6] = biological target: T7, human EGFR soluble extracellular region with C-terminal poly-histidine tag (hEGFR) (human, UniProt P00533 25-638); test: ELISA, single EGFR binding, coated huEGFR-His, anti-human IgG Fab-HRP
T7 construct: also called human EGFR His-tagged protein; soluble human EGFR

[7] = biological target: T8, membrane-bound human EGFR receptor expressed on cells (human, UniProt P00533 25-1210); test: flow cytometry on NCI-H1703 squamous cancer cells, anti-human IgG Fc-PE
T8 construct: whole, on cells; the construct transfected into BAF cells is not described; also called EGFR-transfected BAF cells
Method: as §2, §3

[8] = biological target: T7, human EGFR soluble extracellular region …; test: dual binding ELISA, coated human EGFR, detection with huCD3-biotin and streptavidin-HRP

T6 sequence (P07766 23-207): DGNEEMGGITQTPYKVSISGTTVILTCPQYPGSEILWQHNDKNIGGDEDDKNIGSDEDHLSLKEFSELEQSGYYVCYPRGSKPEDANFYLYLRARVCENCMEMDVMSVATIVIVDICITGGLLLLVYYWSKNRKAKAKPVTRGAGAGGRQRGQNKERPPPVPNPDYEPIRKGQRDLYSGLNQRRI

binding result (hEGFR-IV_580-638): no binding (tested: 200 nM)
binding result [1]: no binding (tested: 200 nM)
binding result (hEGFR-IV_556-638): binds
binding result [2]: binds
B1: 3A6 chimeric antibody (antibody, human IgG1, kappa, V domains shown)
VH: QVQLKQSGPGLVQPSQSLSITCTVSGFSLTSYGVHWVRQSPGKGLEWLGVIWSGGTTDYNAAFISRLSISQDNSKSQVFFKMNSLQANDTAIYYCAGNQGRTVRPTWFAYWGQGTLVTVSS
VL: DILLTQSPAILSVSPGERVSFSCRASQSIGTSIHWYQQRANGSPRLLIKYASESISGIPSRFSGSGSGTDFTLSINSVESEDIAHYYCQQNSNWPLTFGAGTKLELKR
notes: Mouse-human chimeric IgG1 kappa; also called chimeric 3A6 antibody

binding result (hEGFR-I-II-III_hErbB3-IV): no binding (tested: 10 to 0.01 µg/ml)
B2: 3A6 mouse hybridoma antibody (subclone 3A6A12B5) (antibody, V domains shown)
VH: B1 VH
VL: DILLTQSPAILSVSPGERVSFSCRASQSIGTSIHWYQQRANGSPRLLIKYASESISGIPSRFSGSGSGTDFTLSINSVESEDIAHYYCQQNSNWPLTFGAGTKLELK
notes: Tested as mouse IgG (kappa) from hybridoma: supernatant of the parental clone 3A6, purified antibody of the subclone 3A6A12B5; also called 3A6A12F5; 3A6 hybridoma candidate

EC50 [3]: 5.93 µg/mL
EC50 [4]: 6.05 µg/mL
EC50 [5]: 3.91 µg/mL
EC50 [6]: 0.053 µg/mL
EC50 [7]: 0.182 µg/mL
EC50 [8]: 0.171 µg/mL
B3: CD3×EGFR_SF3 (bispecific antibody, human IgG1, kappa, L234A L235A)
chain 1: EVQLVESGGGLVQPGGSLRLSCAASGFTFNTYAMNWVRQAPGKGLEWVARIRSKYNNYATYYADSVKSRFTISRDDSKNTLYLQMNSLRAEDTAVYYCVRHGNFGNSYVSYFAYWGQGTTVTVSSGGGGSGGGGSGGGGSEIVVTQSPATLSVSPGERATLSCRSSTGAVTESNYANWVQEKPGQAFRGLIGGANKRAPGVPARFSGSLSGDEATLTISSLQSEDFAVYYCALFYSNTWVFGQGTKLEIKGGGGTQVQLQESGPGLVKPSETLSLTCTVSGGSVSSGDYYWTWIRQSPGKGLEWIGHIYYSGNTNYNPSLKSRLTISIDTSKTQFSLKLSSVTAADTAIYYCVRDRVTGAFDIWGQGTMVTVSSASTKGPSVFPLAPSSKSTSGGTAALGCLVKDYFPEPVTVSWNSGALTSGVHTFPAVLQSSGLYSLSSVVTVPSSSLGTQTYICNVNHKPSNTKVDKKVEPKSCDKTHTCPPCPAPEAAGGPSVFLFPPKPKDTLMISRTPEVTCVVVDVSHEDPEVQFKWYVDGVEVHNAKTKPREEQYNSTFRVVSVLTVLHQDWLNGKEYKCKVSNKALPAPIEKTISKTKGQPREPAVYTLPPSREEMTKNQVKLVCLVTGFYPSDIAVEWESSGQPENNYYTTPPMLDSDGSFSLVSWLNVDKSRWQQGNIFSCSVMHEALHNRFTQKSLSLSPG
chain 2: not shown
chain 3: DKTHTCPPCPAPEAAGGPSVFLFPPKPKDTLMISRTPEVTCVVVDVSHEDPEVKFNWYVDGVEVHNAKTKPREEQYNSTYRVVSVLTVLHQDWLNGKEYKCKVSNKALPAPIEKTISKAKGQPREPEVATFPPSRDELTKNQVTLVCLVTGFYPSDIAVEWESNGQPENNYKTDPPLLESDGSFALSSRLRVDKSRWQQGNVFSCSVMHEALHNHYTQKSLSLSPG
notes: Batches AE042, P1069, P1027, TRS

binding result (hEGFR-IV_580-638): no binding (tested: 200 nM)
binding result [1]: no binding (tested: 200 nM)
binding result (hEGFR-IV_556-638): binds
binding result [2]: binds
B4: 10E6 chimeric antibody (antibody, human IgG1, kappa, V domains shown)
VH: DVQLQESGPGRVKPSQSLSLTCTVTGYSLTSDYAWSWIRQFPGNRLEWMVYITYSGITTYNPSLKSRISITRDTSKNQFFLQLNSVTTEDTATYYCAGGDYGLSSWFAYWGQGTLVTVSS
VL: DIVLTQSPVTLSVTPGDRVSLSCRASQSISNYLHWYQQKSHESPRLLIKYASQSISGIPSRFSGSGSGTDFTLSINSVETEDFGMYFCQQSNNWPYTFGGGTKLEIKR
notes: Mouse-human chimeric IgG1 kappa; also called chimeric 10E6 antibody

binding result (hEGFR-I-II-III_hErbB3-IV): no binding (tested: 10 to 0.01 µg/ml)
B5: 10E6 mouse hybridoma antibody (subclone 10E6F5) (antibody, V domains shown)
VH: B4 VH
VL: DIVLTQSPVTLSVTPGDRVSLSCRASQSISNYLHWYQQKSHESPRLLIKYASQSISGIPSRFSGSGSGTDFTLSINSVETEDFGMYFCQQSNNWPYTFGGGTKLEIK
notes: Tested as mouse IgG (kappa) from hybridoma: supernatant of the parental clone 10E6, purified antibody of the subclone 10E6F5; also called 10E6 hybridoma candidate
